Legend:
human PDGF-BB [1] = molecular target: T1, human PDGF-BB (human, UniProt P01127 82-190); assay: SPR, IgG on immobilized human PDGF-BB (Example 17)
T1 construct: Bought recombinant protein (Cell Signaling 8921BF or R&D Systems 220-BB); also called huPDGF-BB; recombinant human PDGF-BB
Method: (§1) The binding analysis was carried out using a surface plasmon resonance spectroscopy-based technology applying a BIAcore B4000 system (GE Healthcare). The antigen human PDGF-BB (Cell Signaling, Cat. No. 8921BF) was immobilized at a concentration of 1 μg/mL in PBS, 0.1% BSA, 0.05 Tween using amine coupling chemistry on a C1 sensor chip (GE Healthcare, Cat. No. BR-1005-35). Anti-PDGF-BB antibody in increasing concentrations was applied in 10 mM HEPES pH 7.2, 150 mM NaCl. Utilizing a read out time of 180 sec. association phase and 600 sec. dissociation phase the apparent kₐ and apparent kd were calculated. The apparent KD (avidity) was calculated using the BIAcore T200 v2.0 fitting software.

human PDGF-BB [2] = molecular target: T1, human PDGF-BB; assay: SPR, apparent KD (avidity), IgG on immobilized human PDGF-BB (Example 17)
Method: as §1

human PDGF-BB [3] = molecular target: T1, human PDGF-BB; assay: cell-based or functional assay
human PDGF-BB [4] = molecular target: T1, human PDGF-BB; assay: SPR kinetic screening, IgG on immobilized human PDGF-BB (Example 27)
Method: Binding of anti-PDGF-BB antibodies to human PDGF-BB was investigated by surface plasmon resonance using a BIACORE T200 instrument (GE Healthcare). Around 20 resonance units (RU) of recombinant human PDGF-BB (5 μg/ml; ordering code 220-BB; R&D Systems) were coupled on a Series S C1 chip (GE Healthcare BR-1005-35) at pH 4.0 by using an amine coupling kit supplied by GE Healthcare. Running buffer for immobilization was HBS-N pH 7.4 (10 mM HEPES, 150 mM NaCl, pH 7.4, GE Healthcare). For the following kinetic characterization, running and dilution buffer was HBS-P pH 7.4 (10 mM HEPES, 150 mM NaCl, 0.05% Surfactant P20, pH 7.4, GE Healthcare). The flow cell was set to 25° C.—and the sample block set to 12° C.—and primed with running buffer twice.

human PDGF-BB [5] = molecular target: T1, human PDGF-BB; assay: ELISA, immobilized human PDGF-BB (Example 9)
Method: The binding analysis was carried out using an enzyme-linked immunosorbent assay (ELISA)-based technology. The antigen human PDGF-BB (Cell Signaling, Cat. No 8921BF) was immobilized at a concentration of 125 ng/mL in 25 μL in PBS, 0.5% BSA and 0.05% Tween on a 384 well microtiter plate (Thermo Scientific, Cat. No. 464718). Every of the following steps was followed by a washing routine of 3 times 90 μL PBS with dispense and aspiration: 1) blocking step: saturating unbound surface (1 hour, 2% BSA); 2) anti-PDGF-BB antibody in increasing concentrations for 1 hour; 3) detection antibody, dilution=1:3000 (ECL anti-rabbit IgG-POD, NA9340V+ECL anti-human IgG-POD, NA933V or alternatively for murine antibodies ECL anti-mouse IgG-POD; NA 9310V). 20-30 min. after adding the substrate 3,3′,5,5′-tetramethylbenzidine (TMB, Piercenet, Cat. No. 34021) the optical density was determined at 370 nm. The EC₅₀ was calculated with a four parameter logistic model using GraphPad Prism 6.0 software.

cynomolgus PDGF-BB = molecular target: T2, cynomolgus PDGF-BB (cynomolgus, UniProt A0A2K5UX81 82-190, Disulfide-linked homodimer of two identical B chains; one copy is given.); assay: SPR, IgG on immobilized cynomolgus PDGF-BB (Example 18)
T2 construct: also called cynPDGF-BB
T2 sequence (A0A2K5UX81 entry or part of it limits assumed): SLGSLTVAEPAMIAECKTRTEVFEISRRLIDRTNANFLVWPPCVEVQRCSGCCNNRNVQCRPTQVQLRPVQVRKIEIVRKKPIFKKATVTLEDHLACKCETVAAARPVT
Method: as §1, with “cynomolgus” for “human”, “PDGF-BB” for “PDGF-BB (Cell Signaling, Cat. No. 8921BF)”, “0.05%” for “0.05”

T1 sequence (P01127 82-190 limits assumed): as the sequence (A0A2K5UX81 entry or part of it limits assumed) above, with V7I counted along it

B1: antibody 0058 (antibody, V domains shown)
VH: EVQLVESGGGLVQPGGSLRLSCAASGFTFSSFWMTWVRQAPGKGLEWVASISAGGGITHYPDSVKDRFTVSRDNAKNSLYLQLNSLRAEDTAVYYCAESGGDIYSDFDYWGQGTLVTVSS
VL: not shown
notes: Human antibody from a human Ig locus transgenic rabbit; IgG
B1 gave a koff (human PDGF-BB [1]) of 0.00011 s⁻¹, a kon (human PDGF-BB [1]) of 1.8e+06 M⁻¹ s⁻¹ and a Kd (human PDGF-BB [2]) of 62 pM. The “IC50 Phospho-Inhibition” value (human PDGF-BB [3]) was 0.0029 µg/mL, the “IC50 Proliferation 3T3” value (human PDGF-BB [3]) was 0.0793 µg/mL and the koff (human PDGF-BB [4]) was 0.000291 s⁻¹. It also gave a t½ (human PDGF-BB [4]) of 40 min, an EC50 (human PDGF-BB [5]) of 0.0401 µg/mL and a koff (cynomolgus PDGF-BB) of 6.53e-05 s⁻¹. It also gave a kon (cynomolgus PDGF-BB) of 2.27e+06 M⁻¹ s⁻¹.

B2: antibody 0064 (antibody, V domains shown)
VH: EVQLVESGGGLVQPGGSLRLSCAASGFTFSSYWMSWVRQAPGKGLEWVSTISDGGGTTSYADSVKGRFTISRDNSKNTLYLQMNSLRAEDTAVYSCAESGGATDYLFDYWGQGTLVTVSS
VL: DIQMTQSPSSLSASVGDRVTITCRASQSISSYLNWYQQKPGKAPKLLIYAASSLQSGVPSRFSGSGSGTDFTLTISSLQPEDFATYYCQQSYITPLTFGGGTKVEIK
notes: as for B1
B2 was tested, and the koff (human PDGF-BB [1]) was 5.5e-05 s⁻¹, the kon (human PDGF-BB [1]) was 720000 M⁻¹ s⁻¹ and the Kd (human PDGF-BB [2]) was 76.9 pM. The “IC50 Proliferation 3T3” value (human PDGF-BB [3]) was 0.062 µg/mL, the koff (human PDGF-BB [4]) was 0.000135 s⁻¹ and the t½ (human PDGF-BB [4]) was 85 min. The EC50 (human PDGF-BB [5]) was 0.016 µg/mL, the koff (cynomolgus PDGF-BB) was 4.42e-05 s⁻¹ and the kon (cynomolgus PDGF-BB) was 740000 M⁻¹ s⁻¹.

B3: antibody 0060 (antibody, V domains shown)
VH: EVQLLESGGDLVQPGGSLRLSCAASGFTFRSYAMSWVRQAPGKGLEWVSGISAGGGYIYYADSVTGRFTSSRDNYKNTLYLQMNRLRVEDTAVYYCARFYPGYNSDTYYYDGMDVWGQGTTVTVSS
VL: not shown
notes: as for B1
Binder B3 has a koff (human PDGF-BB [1]) of 2.9e-05 s⁻¹, a kon (human PDGF-BB [1]) of 370000 M⁻¹ s⁻¹ and a Kd (human PDGF-BB [2]) of 78.2 pM. The “IC50 Phospho-Inhibition” value (human PDGF-BB [3]) was 0.0016 µg/mL, the “IC50 Proliferation 3T3” value (human PDGF-BB [3]) was 0.0363 µg/mL and the koff (human PDGF-BB [4]) was 0.000264 s⁻¹. For the same binder, the t½ (human PDGF-BB [4]) was 44 min, the EC50 (human PDGF-BB [5]) was 0.0375 µg/mL and the koff (cynomolgus PDGF-BB) was less than 1e-05 s⁻¹. For the same binder, the kon (cynomolgus PDGF-BB) was 330000 M⁻¹ s⁻¹.

Source: patent US20170247440A1 (Hoffmann-La Roche, published 2017)
